Publication doi:10.1101/2024.05.12.593783

Columns and labels:
[1] = molecular target: FITC-pCLMBWT peptide (residues 21-50, pThr44) (UniProt Q96GX8); assay: fluorescence polarisation
[2] = molecular target: FITC-CLMBWT peptide (residues 21-50), not phosphorylated (UniProt Q96GX8); assay: fluorescence polarisation

Substance: purified, catalytically inactive CNA/B containing CNA_(Trunc+H151Q) (from UniProt Q08209 1-391; P63098 1-170) (complex)
- Kd [1]: 0.0141 µM
- Kd [2]: 0.291 µM
